Measurements as given in the supplement of paper PMC10567573.

B1: KCNA3 (parent)
chain: GERVVINISGLRFETQLKTLCQFP
B2: ZNF649 (parent)
chain: EHERAHRGEKPHGCSLCGKAFYKR

Variants of: B1
Assay: protein stability index of a GFP-peptide fusion (GPS, HEK-293T) (PSI 1-6); higher = more stable
Conditions: c terminus: a fixed tail appended
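Also: lentivirally expressed fusions sorted by FACS into six bins by GFP to DsRed ratio, PSI derived from sequencing read proportions per bin multiplied by bin number.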

Protein stability index: each site, then its substitutions
V4: E 1.92; M 2.79; G 1.66; A 1.75; D 1.88; N 1.64; C 3.21; F 3.43; H 2.16; K 2.23
G1: I 3.44; T 2.96; C 2.8; R 3.52; D 1.82; H 2.1; Q 1.95; S 3; M 3.17; N 2.16; W 4.64; K 2.52; Y 4.07; L 2.66
R3: M 4.26; C 2.36; N 1.09; H 1.04; L 2.75; Y 3.34; K 2.73; A 3.5; T 3.87; P 2.26; G 1.85; S 2.16; Q 3.4; D 2.44
E2: M 2.93; T 2.21; G 2.35; N 2.26; Q 3.74; K 2.2; L 3.35; H 1.45; F 1.98; P 4.1

Variants of: B2
Assay: as above
Conditions: c terminus: a fixed tail appended

Protein stability index of substitutions, site by site:
A5: Q 2.42; Y 2.58; R 2.76; N 2.18; F 2.8; W 1.62; C 2.8; L 2.24; I 1.34; S 1.09; V 1.62; E 1.83; D 1.88; K 1.74; T 3.23; G 1.52; H 2.23
G18: W 1.54; L 2.42; E 2.77; M 1.72; D 2.45; K 2.03; N 2.49; V 2; S 2.5; Q 1.89; I 1.67; R 3.06; T 2.34; A 1.43; Y 1.85; C 1.59; H 2.15
S15: K 3.12; L 2.27; V 1.67; M 1.93; N 2.39; Q 1.41; D 3.14; G 1.56; Y 2.48; E 2.21; W 1.72; H 5.95; R 2.23; A 1.84; P 4.16; I 2.01
G13: M 3.08; I 3.07; Y 3.31; T 2.42; C 1.9; F 2.72; N 2.89; V 2.03; L 2.2; S 1.95; A 2.43; P 1.88; E 2.48
C14: R 3.73; T 3.91; F 2.69; V 4.78; D 4.54; K 4.59; G 4.18; N 4.12; S 4.83; A 4.66; I 4.24; Y 3.56; P 3.12; H 4.25; L 3.94
C17: N 4.44; Q 4.46; V 3.18; G 4.07; D 4.19; R 4.43; L 3.64; P 3.85; M 3.87; F 3.48; S 3.35; H 3.67; T 4.48; Y 2.48; W 3; E 2.58; K 4.13; I 3.81
E9: V 1.42; H 2.13; M 2.08; T 1.81; Y 2.19; S 1.72; L 2.16; N 1.85; A 2.28; R 3.66; F 2.21; W 1.59; I 1.86; C 3.6
K19: T 1.97; I 1.61; D 2.13; Y 2.19; A 1.61; N 2.43; M 2.01; H 2.44; G 1.41; E 1.73; P 1.42; V 1.44; C 1.78
R4: Y 1.5; W 1.88
A20: H 3.2; K 2.74; R 2.78; N 1.83; T 2.17; F 2.57; V 1.79; Y 1.75; I 1.95; C 2; D 2.51; M 2.62
Y22: I 1.93; T 1.93; A 2.22; W 1.81; F 2.95; Q 2.36; N 2.35; V 1.36; P 1.52; K 3.13; L 2.68; D 2.48; M 2.69
F21: P 2.74; L 3.61; G 2.11; C 2.13; T 2.14; Y 2.95; M 2.37; S 2.13; V 2.01; H 3.38; D 2.34
H6: W 1.78; M 2.27; Q 1.31; I 1.54; K 1.04; D 2.01; F 2.04; G 1.21; Y 1.61; L 1.61; V 1.58; E 1.06; N 2.06
H12: I 4.08; M 3.47; E 2; K 2.49; C 1.46; S 1.32; R 1.66; W 1.64; N 1.47; F 3.39; G 1.89; Q 2.18; P 1.7; A 2.74
L16: Y 2.14; C 3.54; V 3.34; N 2.07; K 2.79; T 2.16; R 2.18; F 1.83; G 3.96; M 1.74; P 3.48; D 3.82; S 1.97; I 2.2; E 3.8; Q 3.02; A 3.17
R24: C 4.03; V 2.05; F 2.65; Y 3.5; G 3.11; P 3; T 4.1; A 3.46; W 3.25; D 3.35; I 2.81; S 4.19; Q 4.13
K10: D 2.27; E 2.87; Y 1.7; A 2.12; Q 3.07; M 2.28; N 1.19; I 1.69; S 1.66; V 1.76; T 3.02; F 2.98; W 1.67; R 1.01
R7: H 2.31; E 1.95; Y 1.82; Q 2.02; F 1.32; P 2.63; N 3.32; G 1.61; D 1.98; S 2.23; M 2.72; L 1.48; K 2.34; W 2.02; I 1.69; C 1.65
P11: R 1.45; E 3.19; W 1.9; H 2.41; N 2.33; A 2.08; V 1.79; M 2.31; Y 2.01; C 2.51; G 1.55; T 2.54
K23: Q 2.24; D 1.9; I 1.92; S 2.03; M 3; G 2.65; T 2.8; R 3.06; V 1.95; C 2.64; L 1.77; H 1.83
G8: T 1.91; K 2.27; E 2.27; M 1.8; Q 3.17; I 2.01; Y 3.18; P 2.78; W 2.21; D 1.93; S 1.99; N 2.12; F 2.22; H 2.83
